For assay [1], the target named is T1, human NPR1 on HEK293/hNPR1.myc.DDK cells (no hANP added) (human, UniProt P16066 33-1061).
T1 sequence (looked up): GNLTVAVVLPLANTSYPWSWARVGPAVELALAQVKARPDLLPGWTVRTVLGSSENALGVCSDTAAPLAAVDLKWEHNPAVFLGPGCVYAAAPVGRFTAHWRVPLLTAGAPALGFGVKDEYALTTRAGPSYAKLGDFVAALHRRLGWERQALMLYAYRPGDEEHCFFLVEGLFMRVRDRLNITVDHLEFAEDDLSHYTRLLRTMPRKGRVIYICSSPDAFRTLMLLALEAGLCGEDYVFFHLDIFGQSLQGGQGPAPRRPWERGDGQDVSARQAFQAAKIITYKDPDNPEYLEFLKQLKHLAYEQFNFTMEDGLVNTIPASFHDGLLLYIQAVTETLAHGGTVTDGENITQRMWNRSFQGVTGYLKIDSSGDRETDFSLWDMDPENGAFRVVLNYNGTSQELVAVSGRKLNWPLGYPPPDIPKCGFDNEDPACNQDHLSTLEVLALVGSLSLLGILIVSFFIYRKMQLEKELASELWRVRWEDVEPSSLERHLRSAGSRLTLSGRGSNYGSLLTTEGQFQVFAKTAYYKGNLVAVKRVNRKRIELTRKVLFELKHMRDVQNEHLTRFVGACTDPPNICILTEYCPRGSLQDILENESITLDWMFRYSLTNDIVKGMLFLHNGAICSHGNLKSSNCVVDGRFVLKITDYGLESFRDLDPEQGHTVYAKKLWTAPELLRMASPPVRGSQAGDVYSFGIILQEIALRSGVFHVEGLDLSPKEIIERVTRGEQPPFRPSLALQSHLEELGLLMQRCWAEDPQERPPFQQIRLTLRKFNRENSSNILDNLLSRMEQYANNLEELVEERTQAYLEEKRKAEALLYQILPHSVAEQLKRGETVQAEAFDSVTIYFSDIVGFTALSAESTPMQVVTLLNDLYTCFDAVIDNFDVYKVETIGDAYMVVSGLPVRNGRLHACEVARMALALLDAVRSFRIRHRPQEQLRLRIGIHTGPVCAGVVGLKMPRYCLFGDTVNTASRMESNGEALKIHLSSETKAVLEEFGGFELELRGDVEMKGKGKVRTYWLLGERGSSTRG
Nature of the assay: cell-based or functional assay.

Assay [2] deals with T2, human NPR1 extracellular domain expressed with a C-terminal myc-myc-hexahistidine (hNPR1-MMH) (human, UniProt P16066 33-473).
T2 construct: also called hNPR.mmh; monomeric human NPR1
Nature of the assay: SPR, mAb captured, 25 C. The procedure, abridged: (§1)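 Binding of NPR1 reagents to anti-NPR1 antibodies immobilized via anti-human Fc capture was measured by SPR in pH 7.4 HEPES/NaCl/EDTA/Tween buffer. Affinities are equilibrium KD values.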

The target in assay [3] is mouse NPR1 extracellular domain expressed with a C-terminal myc-myc-hexahistidine (mNPR1-MMH) (mouse, UniProt P18293 29-469). Nature of the assay: SPR, mAb captured, 25 C. In outline: as §1
(In general: SPR reads the build-up and loss of mass on a sensor chip optically.)

Assay [4] has as its target T3, human NPR1 extracellular domain expressed with a C-terminal mouse IgG2a (hNPR1-mFc) (human).
T3 construct: also called hNPR1-Fc; human NPR1 dimer
T3 chain: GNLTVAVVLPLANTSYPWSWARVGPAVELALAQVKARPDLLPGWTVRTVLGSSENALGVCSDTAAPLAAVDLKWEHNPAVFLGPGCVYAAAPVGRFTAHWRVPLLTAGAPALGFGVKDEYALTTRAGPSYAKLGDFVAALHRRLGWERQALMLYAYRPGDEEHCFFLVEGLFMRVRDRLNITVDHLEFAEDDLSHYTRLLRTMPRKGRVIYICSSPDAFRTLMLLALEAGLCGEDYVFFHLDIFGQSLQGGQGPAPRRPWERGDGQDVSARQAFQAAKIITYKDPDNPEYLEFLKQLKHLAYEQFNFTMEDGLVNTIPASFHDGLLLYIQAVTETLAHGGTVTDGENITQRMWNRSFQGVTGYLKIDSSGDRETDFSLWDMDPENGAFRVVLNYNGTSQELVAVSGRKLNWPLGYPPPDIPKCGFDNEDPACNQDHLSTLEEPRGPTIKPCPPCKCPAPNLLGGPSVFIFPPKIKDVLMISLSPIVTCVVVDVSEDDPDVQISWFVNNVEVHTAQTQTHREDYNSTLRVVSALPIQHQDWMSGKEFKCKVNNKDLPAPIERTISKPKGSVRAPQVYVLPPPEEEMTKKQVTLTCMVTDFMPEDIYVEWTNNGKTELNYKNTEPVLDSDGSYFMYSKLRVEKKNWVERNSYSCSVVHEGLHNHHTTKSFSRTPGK
Nature of the assay: SPR, mAb captured, 25 C. The procedure, abridged:
as §1

For assay [5], the target named is T4, monkey NPR1 extracellular domain expressed with a C-terminal myc-myc-hexahistidine (mfNPR1-MMH) (monkey, UniProt P16066 33-473 (human entry)).
T4 construct: also called monomeric monkey NPR1
T4 chain: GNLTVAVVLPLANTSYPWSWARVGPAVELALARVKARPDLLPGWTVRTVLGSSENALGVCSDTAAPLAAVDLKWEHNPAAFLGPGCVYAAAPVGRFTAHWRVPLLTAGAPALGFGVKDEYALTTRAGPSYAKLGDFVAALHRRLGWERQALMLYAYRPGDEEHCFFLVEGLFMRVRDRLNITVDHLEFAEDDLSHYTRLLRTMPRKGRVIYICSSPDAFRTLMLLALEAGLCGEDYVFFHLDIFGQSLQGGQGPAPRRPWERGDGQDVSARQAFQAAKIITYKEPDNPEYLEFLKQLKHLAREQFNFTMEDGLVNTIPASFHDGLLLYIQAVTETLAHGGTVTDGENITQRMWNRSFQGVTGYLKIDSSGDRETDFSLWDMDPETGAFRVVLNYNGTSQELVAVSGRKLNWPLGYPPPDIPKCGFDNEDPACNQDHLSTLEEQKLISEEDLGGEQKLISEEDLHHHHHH
Briefly: SPR, mAb captured, 25 C. In outline:
as §1

Some results are limits rather than exact numbers.

T2 sequence (P16066 other isoform, or with tags, fused parts or gaps): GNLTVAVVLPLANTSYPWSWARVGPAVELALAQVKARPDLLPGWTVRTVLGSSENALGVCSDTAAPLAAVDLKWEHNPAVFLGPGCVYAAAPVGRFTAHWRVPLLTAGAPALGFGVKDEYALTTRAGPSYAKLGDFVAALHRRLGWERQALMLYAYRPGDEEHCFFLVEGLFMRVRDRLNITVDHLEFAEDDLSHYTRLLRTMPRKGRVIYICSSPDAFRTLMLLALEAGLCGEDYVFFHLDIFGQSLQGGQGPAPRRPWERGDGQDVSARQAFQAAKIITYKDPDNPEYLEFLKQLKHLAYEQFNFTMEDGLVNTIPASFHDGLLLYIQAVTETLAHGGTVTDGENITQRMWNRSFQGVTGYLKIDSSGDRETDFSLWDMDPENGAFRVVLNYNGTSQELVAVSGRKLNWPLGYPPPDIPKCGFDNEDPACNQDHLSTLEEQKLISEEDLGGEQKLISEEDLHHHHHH

B1: mAb22035 (antibody, V domains shown)
VH: EVQLVESGGGLVQPGRSLRLSCAASGFTFDDYAMHWVRQAPGKGLEWVSGISWNSGTIGYADSVKGRFTMSRDNAKNSLYLQMNSLRPEDTALYYCAKDMGVSLALWGAFDIWGQGTMVTVSS
VL: DIQMTQSPSSLSASVGDKVTITCRASQNIRTYLNWYQQKPGKAPKVLISTASSLQSGVPSRFSGSGSGTDFTLTISSLQPEDFAVFYCQQSFGIPRTFGQGTKVEIK
The term Kd denotes a measure of binding affinity in units of concentration. One may read the koff as the rate constant with which the complex falls apart. As a reminder, the kon is a measure of how fast the partners come together. For orientation: t½ means the time needed for the level to fall by half in the phase considered. For the molecule B1, in assay [1], the “EC50 of Ca2+ flux activation, Expt I” value fell in the range of 83.7 to 384 nM and the “EC50 of Ca2+ flux activation, Expt II” value is over 200 nM. Also, in assay [2], the “100 nM Ag Bound (RU)” value came out at 210 RU, binding was characterised by a dissociation constant (Kd) of 0.738 nM, the koff came out at 0.00015 s⁻¹ and the kon is 203000 M⁻¹ s⁻¹. The same molecule gave a t½ in assay [2] of 1.29 h. In assay [3], the “100 nM Ag Bound (RU)” value was determined as 0 RU and the binding result is “no binding (tested: 100 nM)”. In assay [4], the “100 nM Ag Bound (RU)” value is 198 RU, the dissociation constant (Kd) is 0.365 nM, the koff was 8.2e-05 s⁻¹ and the kon amounted to 225000 M⁻¹ s⁻¹. The molecule further yielded a t½ in assay [4] of 2.35 h. In assay [5], the “100 nM Ag Bound (RU)” value worked out at 245 RU, the Kd worked out at 0.336 nM, the dissociation rate constant (koff) worked out at 0.000143 s⁻¹ and the on-rate constant (kon) worked out at 426000 M⁻¹ s⁻¹. For the same molecule, the t½ in assay [5] came out at 1.35 h.

B2: mAb22033 (antibody, V domains shown)
VH: QVQLVQSGAEVKKPGASVTVSCKASGYTFTDYYMHWVRQAPGQGLEWMGWIKPNSGGTNSAQRFQGRITMTWDTSISTAYMELSRLRSDDTAVYYCSRGGPVMNYYYYYGMDVWGQGTTVTVSS
VL: NIQMTQSPSSLSASVGDRVTITCRASQSIDSYLNWYQQKPGKAPKLLIYVASSLQSGVPSRFSGSGSGKDFTLTISSLQPEDFATYYCQQSYSIPTFGQGTRLEIK
As to B2, in assay [1], the “EC50 of Ca2+ flux activation, Expt I” value is 83.7 to 384 nM and the “EC50 of Ca2+ flux activation, Expt II” value worked out at 41.6 nM. In assay [2], the “100 nM Ag Bound (RU)” value came out at 30 RU, the equilibrium dissociation constant (Kd) came to 47.5 nM, the koff worked out at 0.000406 s⁻¹ and the association rate constant (kon) is 8550 M⁻¹ s⁻¹. The t½ in assay [2] came out at 0.473 h. In addition, in assay [3], the “100 nM Ag Bound (RU)” value worked out at 0 RU and the binding result is “no binding (tested: 100 nM)”. Further, in assay [4], the “100 nM Ag Bound (RU)” value came out at 56 RU, the dissociation constant Kd is 1.03 nM, the koff is 6.38e-05 s⁻¹ and the association rate constant (kon) stood at 61800 M⁻¹ s⁻¹. In assay [4], this molecule yielded a t½ of 3.02 h. Further, in assay [5], the “100 nM Ag Bound (RU)” value was found to be 79 RU, the Kd turned out to be 16.2 nM, the dissociation rate constant (koff) came out at 0.000291 s⁻¹ and the kon was 17900 M⁻¹ s⁻¹. For the same molecule, in assay [5], the t½ was determined as 0.66 h.

Values taken from patent US20240309103A1 (Regeneron, published 2024).
